Reference: patent publication US20250339569A1 (3B PHARMACEUTICALS, published 2025)
Starred links: 1 amine or outer side, 2 acyl side, 3 side chain; linkers in the order of their positions; H or OH if unused. Positions of bridges follow the written chain, without caps; N, C: chain ends. Non-standard residues stand in square brackets, D forms with d. Groups on a side chain read outwards from the residue. Primed or numbered codes have the meaning given here. No end group written: not given here. *: point of attachment. DOTA = O=C(O)CN1CCN(CC(=O)O)CCN(CC(=O)*)CCN(CC(=O)O)CC1; Trp(5-Cl) = N[C@@H](Cc1c[nH]c2ccc(Cl)cc12)C(=O)O; Trp(5-OH) = N[C@@H](Cc1c[nH]c2ccc(O)cc12)C(=O)O; mXylylene = c1cc(C[*:1])cc(C[*:2])c1; Bta = N[C@@H](Cc1csc2ccccc12)C(=O)O; Isovaleryl = CC(C)CC(=O)*; Apr = not defined here; AEEA = NCCOCCOCC(=O)O; Aib = CC(C)(N)C(=O)O; Ttds″ = Ttds spacer; Sar = CNCC(=O)O

How the values were obtained:
[1] = molecular target: T1, human carbonic anhydrase 9 (CAIX) (human, UniProt Q16790 38-459); experiment: FACS competition on HT-29 cells against tracer 3BP-2776; pIC50 category B = pIC50 7.1-8.0
Method: (§1) CAIX-expressing human HT-29 colorectal cancer cells (DSMZ, RRID: CVCL_0320) were cultured in McCoys's 5A modified medium (Biochrom, #F1015) including 10% fetal calf serum (FCS), 2 mM L-glutamine, 100 U/ml penicillin and 100 μg/mL streptomycin. Cells were detached with Accutase (Biolegend, #423201) and washed in FACS buffer (PBS including 1% FCS). Cells were diluted in FACS buffer to a final concentration of 500.000 cells per ml. 200 μL of the cell suspension were transferred to a u-shaped non-binding 96-well plate (Greiner) and cells were washed in ice-cold FACS buffer.
(§2) When biotinylated compounds were used an additional incubation step with 1 μg/mL APC-Streptavidin (Miltenyi; #130-106-791) in 50 μL FACS buffer for 30 minutes on ice was performed.
(§3) Cells were washed twice with ice-cold FACS buffer and analyzed in an Attune NxT flow cytometer (Thermo Fisher). Median fluorescence intensities (MFI) of the APC/Cy5-channel were calculated by Attune NxT software.

[2] = molecular target: T1, human carbonic anhydrase 9 (CAIX); experiment: FACS competition on HT-29 cells against tracer 3BP-2776; pIC50 category C = pIC50 6.1-7.0
Method: as §1, §2, §3

Binder	pIC50 [1] [pic50]	pIC50 [2] [pic50]
Ac-VYCEGDW[dL]TWQC-NH2 (linker 3-12 via mXylylene; SMILES CC(=O)N[C@H](C(=O)N[C@@H](Cc1ccc(O)cc1)C(=O)N[C@H]1CSCc2cccc(c2)CSC[C@@H](C(N)=O)NC(=O)[C@H](CCC(N)=O)NC(=O)[C@H](Cc2c[nH]c3ccccc23)NC(=O)[C@H]([C@@H](C)O)NC(=O)[C@@H](CC(C)C)NC(=O)[C@H](Cc2c[nH]c3ccccc23)NC(=O)[C@H](CC(=O)O)NC(=O)CNC(=O)[C@H](CCC(=O)O)NC1=O)C(C)C, also called Ac-Val-Tyr-[Cys(3MeBn)-Glu-Gly-Asp-Trp-leu-Thr-Trp-Gln-Cys]-NH2) [3BP-3048]		6.1 to 7
Ac-V[dY]CEGDWLTWQC-NH2 (linker 3-12 via mXylylene; SMILES CC(=O)N[C@H](C(=O)N[C@H](Cc1ccc(O)cc1)C(=O)N[C@H]1CSCc2cccc(c2)CSC[C@@H](C(N)=O)NC(=O)[C@H](CCC(N)=O)NC(=O)[C@H](Cc2c[nH]c3ccccc23)NC(=O)[C@H]([C@@H](C)O)NC(=O)[C@H](CC(C)C)NC(=O)[C@H](Cc2c[nH]c3ccccc23)NC(=O)[C@H](CC(=O)O)NC(=O)CNC(=O)[C@H](CCC(=O)O)NC1=O)C(C)C) [3BP-3044]		6.1 to 7
Ac-VYCEGAWLTWQC-NH2 (linker 3-12 via mXylylene; SMILES CC(=O)N[C@H](C(=O)N[C@@H](Cc1ccc(O)cc1)C(=O)N[C@H]1CSCc2cccc(c2)CSC[C@@H](C(N)=O)NC(=O)[C@H](CCC(N)=O)NC(=O)[C@H](Cc2c[nH]c3ccccc23)NC(=O)[C@H]([C@@H](C)O)NC(=O)[C@H](CC(C)C)NC(=O)[C@H](Cc2c[nH]c3ccccc23)NC(=O)[C@H](C)NC(=O)CNC(=O)[C@H](CCC(=O)O)NC1=O)C(C)C) [3BP-3053]	7.1 to 8	
Ac-VYCEGDWLAWQC-NH2 (linker 3-12 via mXylylene; SMILES CC(=O)N[C@H](C(=O)N[C@@H](Cc1ccc(O)cc1)C(=O)N[C@H]1CSCc2cccc(c2)CSC[C@@H](C(N)=O)NC(=O)[C@H](CCC(N)=O)NC(=O)[C@H](Cc2c[nH]c3ccccc23)NC(=O)[C@H](C)NC(=O)[C@H](CC(C)C)NC(=O)[C@H](Cc2c[nH]c3ccccc23)NC(=O)[C@H](CC(=O)O)NC(=O)CNC(=O)[C@H](CCC(=O)O)NC1=O)C(C)C) [3BP-3056]	7.1 to 8	
Ac-MVYCEGDWLTWQC-NH2 (linker 4-13 via mXylylene; SMILES CSCC[C@H](NC(C)=O)C(=O)N[C@H](C(=O)N[C@@H](Cc1ccc(O)cc1)C(=O)N[C@H]1CSCc2cccc(c2)CSC[C@@H](C(N)=O)NC(=O)[C@H](CCC(N)=O)NC(=O)[C@H](Cc2c[nH]c3ccccc23)NC(=O)[C@H]([C@@H](C)O)NC(=O)[C@H](CC(C)C)NC(=O)[C@H](Cc2c[nH]c3ccccc23)NC(=O)[C@H](CC(=O)O)NC(=O)CNC(=O)[C@H](CCC(=O)O)NC1=O)C(C)C) [3BP-2836]		6.1 to 7
Ac-VYCEGDWL[dT]WQC-NH2 (linker 3-12 via mXylylene; SMILES CC(=O)N[C@H](C(=O)N[C@@H](Cc1ccc(O)cc1)C(=O)N[C@H]1CSCc2cccc(c2)CSC[C@@H](C(N)=O)NC(=O)[C@H](CCC(N)=O)NC(=O)[C@H](Cc2c[nH]c3ccccc23)NC(=O)[C@@H]([C@H](C)O)NC(=O)[C@H](CC(C)C)NC(=O)[C@H](Cc2c[nH]c3ccccc23)NC(=O)[C@H](CC(=O)O)NC(=O)CNC(=O)[C@H](CCC(=O)O)NC1=O)C(C)C, also called Ac-Val-Tyr-[Cys(3MeBn)-Glu-Gly-Asp-Trp-Leu-thr-Trp-Gln-Cys]-NH2) [3BP-3049]		6.1 to 7
Ac-VYCEG[dD]WLTWQC-NH2 (linker 3-12 via mXylylene; SMILES CC(=O)N[C@H](C(=O)N[C@@H](Cc1ccc(O)cc1)C(=O)N[C@H]1CSCc2cccc(c2)CSC[C@@H](C(N)=O)NC(=O)[C@H](CCC(N)=O)NC(=O)[C@H](Cc2c[nH]c3ccccc23)NC(=O)[C@H]([C@@H](C)O)NC(=O)[C@H](CC(C)C)NC(=O)[C@H](Cc2c[nH]c3ccccc23)NC(=O)[C@@H](CC(=O)O)NC(=O)CNC(=O)[C@H](CCC(=O)O)NC1=O)C(C)C, also called Ac-Val-Tyr-[Cys(3MeBn)-Glu-Gly-asp-Trp-Leu-Thr-Trp-Gln-Cys]-NH2) [3BP-3047]		6.1 to 7
Ac-VYC[dE]GDWLTWQC-NH2 (linker 3-12 via mXylylene; SMILES CC(=O)N[C@H](C(=O)N[C@@H](Cc1ccc(O)cc1)C(=O)N[C@H]1CSCc2cccc(c2)CSC[C@@H](C(N)=O)NC(=O)[C@H](CCC(N)=O)NC(=O)[C@H](Cc2c[nH]c3ccccc23)NC(=O)[C@H]([C@@H](C)O)NC(=O)[C@H](CC(C)C)NC(=O)[C@H](Cc2c[nH]c3ccccc23)NC(=O)[C@H](CC(=O)O)NC(=O)CNC(=O)[C@@H](CCC(=O)O)NC1=O)C(C)C) [3BP-3045]		6.1 to 7
Ac-VYCEG[Aib]WLTWQC-NH2 (linker 3-12 via mXylylene; SMILES CC(=O)N[C@H](C(=O)N[C@@H](Cc1ccc(O)cc1)C(=O)N[C@H]1CSCc2cccc(c2)CSC[C@@H](C(N)=O)NC(=O)[C@H](CCC(N)=O)NC(=O)[C@H](Cc2c[nH]c3ccccc23)NC(=O)[C@H]([C@@H](C)O)NC(=O)[C@H](CC(C)C)NC(=O)[C@H](Cc2c[nH]c3ccccc23)NC(=O)C(C)(C)NC(=O)CNC(=O)[C@H](CCC(=O)O)NC1=O)C(C)C, also called Ac-Val-Tyr-[Cys(3MeBn)-Glu-Gly-Aib-Trp-Leu-Thr-Trp-Gln-Cys]-NH2) [3BP-3061]		6.1 to 7

Other lines, results leading:

pIC50 [1] [pic50]	pIC50 [2] [pic50]	Binder
7.1 to 8		Ac-VYCE[dP]DW[Aib]TWAC-NH2 (linker 3-12 via mXylylene; SMILES CC(=O)N[C@H](C(=O)N[C@@H](Cc1ccc(O)cc1)C(=O)N[C@H]1CSCc2cccc(c2)CSC[C@@H](C(N)=O)NC(=O)[C@H](C)NC(=O)[C@H](Cc2c[nH]c3ccccc23)NC(=O)[C@H]([C@@H](C)O)NC(=O)C(C)(C)NC(=O)[C@H](Cc2c[nH]c3ccccc23)NC(=O)[C@H](CC(=O)O)NC(=O)[C@H]2CCCN2C(=O)[C@H](CCC(=O)O)NC1=O)C(C)C, also called Ac-Val-Tyr-[Cys(3MeBn)-Glu-pro-Asp-Trp-Aib-Thr-Trp-Ala-Cys]-NH2) [3BP-3502]
	6.1 to 7	Ac-VYCE[Sar]DWLT[Trp(5-Cl)]QC-NH2 (linker 3-12 via mXylylene; SMILES CC(=O)N[C@H](C(=O)N[C@@H](Cc1ccc(O)cc1)C(=O)N[C@H]1CSCc2cccc(c2)CSC[C@@H](C(N)=O)NC(=O)[C@H](CCC(N)=O)NC(=O)[C@H](Cc2c[nH]c3ccc(Cl)cc23)NC(=O)[C@H]([C@@H](C)O)NC(=O)[C@H](CC(C)C)NC(=O)[C@H](Cc2c[nH]c3ccccc23)NC(=O)[C@H](CC(=O)O)NC(=O)CN(C)C(=O)[C@H](CCC(=O)O)NC1=O)C(C)C, also called Ac-Val-Tyr-[Cys(3MeBn)-Glu-Nmg-Asp-Trp-Leu-Thr-5Clw-Gln-Cys]-NH2) [3BP-3312]
	6.1 to 7	Ac-VYCE[Sar]DWLT[Bta]QC-NH2 (linker 3-12 via mXylylene; SMILES CC(=O)N[C@H](C(=O)N[C@@H](Cc1ccc(O)cc1)C(=O)N[C@H]1CSCc2cccc(c2)CSC[C@@H](C(N)=O)NC(=O)[C@H](CCC(N)=O)NC(=O)[C@H](Cc2csc3ccccc23)NC(=O)[C@H]([C@@H](C)O)NC(=O)[C@H](CC(C)C)NC(=O)[C@H](Cc2c[nH]c3ccccc23)NC(=O)[C@H](CC(=O)O)NC(=O)CN(C)C(=O)[C@H](CCC(=O)O)NC1=O)C(C)C, also called Ac-Val-Tyr-[Cys(3MeBn)-Glu-Nmg-Asp-Trp-Leu-Thr-Bta-Gln-Cys]-NH2) [3BP-3315]
7.1 to 8		{DOTA-Ttds″}-VYCE[Sar]DWLTWAC-NH2 (linker 3-12 via mXylylene; not fully specified, also called DOTA-Ttds-Val-Tyr-[Cys(3MeBn)-Glu-Nmg-Asp-Trp-Leu-Thr-Trp-Ala-Cys]-NH2) [3BP-3278]
	6.1 to 7	Ac-VYCE[Sar]D[Trp(5-OH)]LTWQC-NH2 (linker 3-12 via mXylylene; SMILES CC(=O)N[C@H](C(=O)N[C@@H](Cc1ccc(O)cc1)C(=O)N[C@H]1CSCc2cccc(c2)CSC[C@@H](C(N)=O)NC(=O)[C@H](CCC(N)=O)NC(=O)[C@H](Cc2c[nH]c3ccccc23)NC(=O)[C@H]([C@@H](C)O)NC(=O)[C@H](CC(C)C)NC(=O)[C@H](Cc2c[nH]c3ccc(O)cc23)NC(=O)[C@H](CC(=O)O)NC(=O)CN(C)C(=O)[C@H](CCC(=O)O)NC1=O)C(C)C, also called Ac-Val-Tyr-[Cys(3MeBn)-Glu-Nmg-Asp-Hyw-Leu-Thr-Trp-Gln-Cys]-NH2) [3BP-3310]
7.1 to 8		VYCEGDWLTWQC-NH2 (linker 3-12 via mXylylene; not fully specified (N-terminus); also: indium complexed by DOTA) [3BP-3328]
7.1 to 8		Isovaleryl-RCE[dP]DWLTWE([Apr-AEEA-DOTA])C-NH2 (linker 2-11 via 3MeBn; reading uncertain, also called Iva-Arg-[Cys(3MeBn)-Glu-pro-Asp-Trp-Leu-Thr-Trp-Glu(NH-Apr-O2Oc-DOTA′)-Cys]-NH2) [3BP-3741]
7.1 to 8		Isovaleryl-ECE[dP]DWLTWE([Apr-AEEA-DOTA])C-NH2 (linker 2-11 via mXylylene; reading uncertain, also called Iva-Glu-[Cys(3MeBn)-Glu-pro-Asp-Trp-Leu-Thr-Trp-Glu(NH-Apr-O2Oc-DOTA′)-Cys]-NH2) [3BP-3872]
7.1 to 8		Isovaleryl-DCE[dP]DWLTWE([Apr-AEEA-DOTA])C-NH2 (linker 2-11 via mXylylene; reading uncertain, also called Iva-Asp-[Cys(3MeBn)-Glu-pro-Asp-Trp-Leu-Thr-Trp-Glu(NH-Apr-O2Oc-DOTA′)-Cys]-NH2) [3BP-3871]
